Source: the Human Domainome abundance scans (Beltran et al. 2025)
± gives the uncertainty stated by the source.

B1: Formin-binding protein 4, residues 200 to 261; numbered along this chain, Q8N3X1 (parent)
chain: SGWQYDTQCSLAGVGIEMGDWQEVWDENTGCYYYWNTQTNEVTWELPQYLATQVQGLQHYQP

Variants of: B1
Assay: abundance fitness (aPCA) (normalised: wild type 0, dead -1); higher = more abundant; growth selection in yeast, the domain comes from the species named
Conditions: Homo sapiens

| Variant | abundance fitness |
| --- | --- |
| SGWQYDTQCSLAGVGIEMGDWQEVWDENTGCYYYWNTQTNEVTPELPQYLATQVQGLQHYQP | -0.218 ± 0.084 |
| SGWQYDTQCSLAGVGIEMGDWQEVWDENTGCYYYWNTQTNEVTEELPQYLATQVQGLQHYQP | 0.078 ± 0.086 |
| SGWQYDTQCSLAGVGIEMGDWQEVWDENTGCYYYWNTQTNEVTVELPQYLATQVQGLQHYQP | -0.127 ± 0.069 |
| SGWQYDTQCSLAGVGIEMGDWQEVWDENTGCYYYWNTQTNEVTKELPQYLATQVQGLQHYQP | 0.043 ± 0.088 |
| SGWQYDTQCSLAGVGIEMGDWQEVWDENTGCYYYWNTQTNEVTTELPQYLATQVQGLQHYQP | -0.077 ± 0.079 |
| SGWQYDTQCSLAGVGIEMGDWQEVWDENTGCYYYWNTQTNEVTCELPQYLATQVQGLQHYQP | -0.078 ± 0.096 |
| SGWQYDTQCSLAGVGIEMGDWQEVWDENTGCYYYWNTQTNEVTFELPQYLATQVQGLQHYQP | -0.121 ± 0.087 |
| SGWQYDTQCSLAGVGIEMGDWQEVWDENTGCYYYWNTQTNEVTIELPQYLATQVQGLQHYQP | -0.503 ± 0.17 |
| SGWQYDTQCSLAGVGIEMGDWQEVWDENTGCYYYWNTQTNEVTGELPQYLATQVQGLQHYQP | -0.135 ± 0.065 |
| SGWQYDTQCSLAGVGIEMGDWQEVWDENTGCYYYWNTQTNEVTWELPAYLATQVQGLQHYQP | -0.039 ± 0.082 |
| SGWQYDTQCSLAGVGIEMGDWQEVWDENTGCYYYWNTQTNEVTWELPGYLATQVQGLQHYQP | -0.007 ± 0.059 |
| SGWQYDTQCSLAGVGIEMGDWQEVWDENTGCYYYWNTQTNEVTWELPMYLATQVQGLQHYQP | 0.085 ± 0.091 |
| SGWQYDTQCSLAGVGIEMGDWQEVWDENTGCYYYWNTQTNEVTWELPSYLATQVQGLQHYQP | -0.038 ± 0.068 |
| SGWQYDTQCSLAGVGIEMGDWQEVWDENTGCYYYWNTQTNEVTWELPPYLATQVQGLQHYQP | 0.319 ± 0.079 |
| SGWQYDTQCSLAGVGIEMGDWQEVWDENTGCYYYWNTQTNEVTWELPRYLATQVQGLQHYQP | -0.061 ± 0.063 |
| SGWQYDTQCSLAGVGIEMGDWQEVWDENTGCYYYWNTQTNEVTWELPIYLATQVQGLQHYQP | -0.262 ± 0.15 |
| SGWQYDTQCSLAGVGIEMGDWQEVWDENTGCYYYWNTQTNEVTWELPLYLATQVQGLQHYQP | 0.043 ± 0.062 |
| SGWQYDTQCSLAGVGIEMGDWQEVWDENTGCYYYWNTQTNEVTWELPEYLATQVQGLQHYQP | -0.024 ± 0.11 |
| SGWQYDTQCSLAGVGIEMGDWQEVWDENTGCYYYWNTQTNEVTWELPCYLATQVQGLQHYQP | -0.147 ± 0.092 |
| SGWQYDTQCSLAGVGIEMGDWQEVWDENTGCYYYWNTQTNEVTWELPDYLATQVQGLQHYQP | 0.02 ± 0.16 |
| SGWQYDTQCSLAGVGIEMGDWQEVWDENTGCYYYWNTQTNEVTWELPNYLATQVQGLQHYQP | -0.059 ± 0.17 |
| SGWQYDTQCSLAGVGIEMGDWQEVWDENTGCYYYWNTQTNEVTWELPKYLATQVQGLQHYQP | 0.129 ± 0.1 |

| Variant | abundance fitness |
| --- | --- |
| SGWQYDTQCSLAGVGIEMGDWQEVWDENTGCYYYWNTQTNEVTWELPHYLATQVQGLQHYQP | -0.133 ± 0.15 |
| SGWQYDTQCSLAGVGIEMGDWQEVWDENTGCYYYWNTQTNEVTWELPFYLATQVQGLQHYQP | -0.293 ± 0.16 |
| SGWQYDTQCSLAGVGIEMGDWQEVWDENTGCYYYWNTQTNEVTWEVPQYLATQVQGLQHYQP | -0.303 ± 0.074 |
| SGWQYDTQCSLAGVGIEMGDWQEVWDENTGCYYYWNTQTNEVTWEYPQYLATQVQGLQHYQP | -0.059 ± 0.16 |
| SGWQYDTQCSLAGVGIEMGDWQEVWDENTGCYYYWNTQTNEVTWEMPQYLATQVQGLQHYQP | -0.224 ± 0.088 |
| SGWQYDTQCSLAGVGIEMGDWQEVWDENTGCYYYWNTQTNEVTWEAPQYLATQVQGLQHYQP | -0.461 ± 0.092 |
| SGWQYDTQCSLAGVGIEMGDWQEVWDENTGCYYYWNTQTNEVTWETPQYLATQVQGLQHYQP | -0.229 ± 0.091 |
| SGWQYDTQCSLAGVGIEMGDWQEVWDENTGCYYYWNTQTNEVTWEPPQYLATQVQGLQHYQP | -0.454 ± 0.12 |
| SGWQYDTQCSLAGVGIEMGDWQEVWDENTGCYYYWNTQTNEVTWEIPQYLATQVQGLQHYQP | -0.245 ± 0.15 |
| SGWQYDTQCSLAGVGIEMGDWQEVWDENTGCYYYWNTQTNEVTWEWPQYLATQVQGLQHYQP | -0.493 ± 0.1 |
| SGWQYDTQCSLAGVGIEMGDWQEVWDENTGCYYYWNTQTNEVTWEFPQYLATQVQGLQHYQP | -0.46 ± 0.17 |
| SGWQYDTQCSLAGVGIEMGDWQEVWDENTGCYYYWNTQTNEVTWEDPQYLATQVQGLQHYQP | -1.08 ± 0.34 |
| SGWQYDTQCSLAGVGIEMGDWQEVWDENTGCYYYWNTQTNEVTWENPQYLATQVQGLQHYQP | -0.625 ± 0.4 |
| SGWQYDTQCSLAGVGIEMGDWQEVWDENTGCYYYWNTQTNEVTWEEPQYLATQVQGLQHYQP | -0.525 ± 0.12 |
| SGWQYDTQCSLAGVGIEMGDWQEVWDENTGCYYYWNTQTNEVTWEGPQYLATQVQGLQHYQP | -0.787 ± 0.11 |
| SGWQYDTQCSLAGVGIEMGDWQEVWDENTGCYYYWNTQTNEVTWECPQYLATQVQGLQHYQP | -0.309 ± 0.15 |
| SGWQYDTQCSLAGVGIEMGDWQEVWDENTGCYYYWNTQTNEVTWEHPQYLATQVQGLQHYQP | -0.626 ± 0.35 |
| SGWQYDTQCSLAGVGIEMGDWQEVWDENTGCYYYWNTQTNEVTWEQPQYLATQVQGLQHYQP | -0.264 ± 0.14 |
| SGWQYDTQCSLAGVGIEMGDWQEVWDENTGCYYYWNTQTNEVTWERPQYLATQVQGLQHYQP | -0.467 ± 0.085 |
| SGWQYDTQCSLAGVGIEMGDWQEVWDENTGCYYYWNTQTNEVTWESPQYLATQVQGLQHYQP | -0.779 ± 0.12 |
| SGWQYDTQCSLAGVGIEMGDWQEVWDENTGCYYYWNTQTNEVTWEKPQYLATQVQGLQHYQP | -0.631 ± 0.12 |
